From paper PMC9631991

Biological target: biotinylated pro-LC3B (residues 1-125) (human) (UniProt Q9GZQ8)
Assay: SPR; biotinylated LC3B constructs immobilised on NeutrAvidin-coated CM5 chips; ATG4b proteins flowed over, 0.2 nM~20 uM; 1X PBS, 0.5 mM TCEP, 0.05% Tween 20, 20 °C; Biacore 4000; 1:1 binding model

- Kd: 321 nM
Substance: ATG4b WT (full-length ATG4b) (from UniProt Q9Y4P1 1-393) (enzyme)
